Residue numbers refer to the chain shown, from its start.
B1: 3C7 PR3 (designed binder)
chain: EVVAATPTSLLISWRHPHFPTRYYRITYGETGGNSPVQEFTVPLQPPTATISGLKPGVDYTITGYAVTRGLNDGELLTPISINYRT
notes: Del 1-8
B2: 3′F2 PR4 (designed binder)
chain: B1 chain with R69L, L71K, G74H
notes: Del 1-8
B3: 4C9 PR3 (designed binder)
chain: B1 chain with R69L, G70A, L71Q, G74H
notes: Del 1-8
B4: 3′G3 PR4 (designed binder)
chain: B1 chain with R69F, G70D, L71Q, N72S, G74H
notes: Del 1-8
B5: 3′C5 PR4 (designed binder)
chain: B1 chain with R69D, G70A, L71M, N72Y, D73G, G74R, L77M
notes: Del 1-8
B6: 3′H9 PR4 (designed binder)
chain: B1 chain with R69H, L71P, N72Y, G74Q, E75V
notes: Del 1-8
B7: 3′A6 PR4 (designed binder)
chain: B1 chain with R69L, G70A, L71Q, D73G, G74H
notes: Del 1-8
B8: 3′A9 PR4 (designed binder)
chain: B1 chain with R69L, G70A, L71H, G74R
notes: Del 1-8
B9: 3F8 PR3 (designed binder)
chain: B1 chain with R69V, G70A, L71Q, D73G, G74H, L77K
notes: Del 1-8
B10: 3′C3 PR4 (designed binder)
chain: B1 chain with R69M, G70A, L71Q, D73G, G74H, E75A, L77F
notes: Del 1-8
B11: 3′A7 PR4 (designed binder)
chain: B1 chain with R69L, G70S, L71D, N72S, D73G, G74H, E75A, L77F
notes: Del 1-8
B12: 3′C8 PR4 (designed binder)
chain: B1 chain with R69E, G74H, L77M, T78I
notes: Del 1-8
B13: 3′D3 PR4 (designed binder)
chain: B1 chain with R69P, L71P, N72G, G74R, L77I
notes: Del 1-8
B14: 3′B4 PR4 (designed binder)
chain: B1 chain with R69V, G70A, L71W, D73G, G74H, L77M
notes: Del 1-8
B15: 4F4 PR3 (designed binder)
chain: B1 chain with R69L, G70A, L71Q, G74R, L77I
notes: Del 1-8
B16: 3′E5 PR4 (designed binder)
chain: B1 chain with R69V, G70A, L71W, N72D, D73G, G74R, L77F
notes: Del 1-8
B17: 3′E1 PR4 (designed binder)
chain: B1 chain with R69V, G70A, L71P, D73G, G74H, L77F
notes: Del 1-8
B18: 3′F6 PR4 (designed binder)
chain: B1 chain with R69I, G70E, L71Q, N72S, D73G, G74L, E75Q, L77M
notes: Del 1-8
B19: 3′G10 PR4 (designed binder)
chain: B1 chain with R69L, G70T, L71H, G74H
notes: Del 1-8
B20: 3′C6 PR4 (designed binder)
chain: B1 chain with R69M, L71P, G74R
notes: Del 1-8
B21: 3′D8 PR4 (designed binder)
chain: B1 chain with R69A, L71P, G74H, E75Q, L77F
notes: Del 1-8
B22: 3′C12 PR4 (designed binder)
chain: B1 chain with R69I, L71P, D73N, G74H
notes: Del 1-8
B23: 3′E3 PR4 (designed binder)
chain: B1 chain with R69M, G70A, L71Q, N72Y, D73G, G74R
notes: Del 1-8
B24: 3′A8 PR4 (designed binder)
chain: B1 chain with R69V, G70A, L71W, N72D, G74H
notes: Del 1-8
B25: 3′B11 PR4 (designed binder)
chain: B1 chain with R69E, G70T, L71W, G74H, L76I, L77R
notes: Del 1-8
B26: 3′B10 PR4 (designed binder)
chain: B1 chain with R69L, G70A, L71Q, N72T, D73G, G74R
notes: Del 1-8
B27: 3′B1 PR4 (designed binder)
chain: B1 chain with R69E, G70A, L71R, D73G, G74R
notes: Del 1-8
B28: 3′D2 PR4 (designed binder)
chain: B1 chain with R69V, G70E, L71S, D73G, G74H, E75A, L77F, T78V
notes: Del 1-8
B29: 3′E9 PR4 (designed binder)
chain: B1 chain with R69V, G70E, L71Q, N72D, D73G, G74H, E75V, L77Y, T78I
notes: Del 1-8
B30: 3′F9 PR4 (designed binder)
chain: B1 chain with R69L, L71P, G74R, L77M
notes: Del 1-8
B31: 3′G1 PR4 (designed binder)
chain: B1 chain with R69L, G70A, D73G, G74H, L77F
notes: Del 1-8
B32: 4H5 PR3 (designed binder)
chain: B1 chain with R69V, G70A, L71Q, D73G, G74H, L77I
notes: Del 1-8
B33: 4′B3 PR4 (designed binder)
chain: B1 chain with R69M, G70A, L71Q, D73N, G74R
notes: Del 1-8
B34: 3′G2 PR4 (designed binder)
chain: B1 chain with R69L, G70A, L71Q, D73G, G74H, L77I
notes: Del 1-8
B35: 3′H3 PR4 (designed binder)
chain: B1 chain with R69L, G74R, L77M
notes: Del 1-8
B36: 3′E11 PR4 (designed binder)
chain: B1 chain with R69V, L71P, N72H, G74R
notes: Del 1-8
B37: 4′A5 PR4 (designed binder)
chain: B1 chain with R69L, G70A, L71Q, G74H
notes: Del 1-8
B38: 3′F1 PR4 (designed binder)
chain: B1 chain with R69V, G70A, L71Q, N72D, D73G, G74H, E75F, L77Y
notes: Del 1-8
B39: 3′H1 PR4 (designed binder)
chain: B1 chain with R69F, G70A, L71Q, G74H, E75Q, L77F
notes: Del 1-8
B40: 3′B8 PR4 (designed binder)
chain: B1 chain with R69L, L71Y, N72H, G74H, E75A, L77F
notes: Del 1-8
B41: 3C9 PR3 (designed binder)
chain: B1 chain with R69L, G70V, L71R, G74H
notes: Del 1-8
B42: 3′B12 PR4 (designed binder)
chain: B1 chain with R69V, G70A, L71H, N72E, D73N, G74R
notes: Del 1-8
B43: 3′H11 PR4 (designed binder)
chain: B1 chain with R69L, G70A, L71H, D73G, G74N
notes: Del 1-8
B44: 3D12 PR3 (designed binder)
chain: B1 chain with R69L, L71Q, G74R, E75Q, T78V
notes: Del 1-8
B45: 3F10 PR3 (designed binder)
chain: B1 chain with R69L, G70A, L71Q, N72D, G74H
notes: Del 1-8
B46: 3′D9 PR4 (designed binder)
chain: B1 chain with R69G, G70Y, L71Y, G74R
notes: Del 1-8
B47: 4B11 PR3 (designed binder)
chain: B1 chain with R69V, L71Q, D73N, G74H, L77I
notes: Del 1-8
B48: 3′F12 PR4 (designed binder)
chain: B1 chain with R69L, G70S, L71Q, N72T, G74H
notes: Del 1-8
B49: 3′H10 PR4 (designed binder)
chain: B1 chain with R69W, G70A, L71W, G74H, L77M
notes: Del 1-8
B50: 3′B2 PR4 (designed binder)
chain: B1 chain with R69V, L71R, G74R
notes: Del 1-8
B51: 3′H8 PR4 (designed binder)
chain: B1 chain with R69V, L71H, G74R, L77I
notes: Del 1-8
B52: 3′G7 PR4 (designed binder)
chain: B1 chain with R69E, L71Q, G74Q, E75L, L77F, T78I
notes: Del 1-8
B53: 3′F3 PR4 (designed binder)
chain: B1 chain with R69L, L71H, G74R
notes: Del 1-8
B54: 3G2 PR3 (designed binder)
chain: B1 chain with R69F, L71P, N72S, G74H, E75V
notes: Del 1-8

Target: T1, human vascular endothelial growth factor receptor-2 Fc chimera (KDR-Fc) (human, UniProt P35968 20-764)
T1 construct: range 1-764; also called human VEGFR-2; VEGF-R2-Fc; not shown: human IgG1 Fc
T1 sequence (P35968 20-764 limits assumed, change not shown, form in doubt): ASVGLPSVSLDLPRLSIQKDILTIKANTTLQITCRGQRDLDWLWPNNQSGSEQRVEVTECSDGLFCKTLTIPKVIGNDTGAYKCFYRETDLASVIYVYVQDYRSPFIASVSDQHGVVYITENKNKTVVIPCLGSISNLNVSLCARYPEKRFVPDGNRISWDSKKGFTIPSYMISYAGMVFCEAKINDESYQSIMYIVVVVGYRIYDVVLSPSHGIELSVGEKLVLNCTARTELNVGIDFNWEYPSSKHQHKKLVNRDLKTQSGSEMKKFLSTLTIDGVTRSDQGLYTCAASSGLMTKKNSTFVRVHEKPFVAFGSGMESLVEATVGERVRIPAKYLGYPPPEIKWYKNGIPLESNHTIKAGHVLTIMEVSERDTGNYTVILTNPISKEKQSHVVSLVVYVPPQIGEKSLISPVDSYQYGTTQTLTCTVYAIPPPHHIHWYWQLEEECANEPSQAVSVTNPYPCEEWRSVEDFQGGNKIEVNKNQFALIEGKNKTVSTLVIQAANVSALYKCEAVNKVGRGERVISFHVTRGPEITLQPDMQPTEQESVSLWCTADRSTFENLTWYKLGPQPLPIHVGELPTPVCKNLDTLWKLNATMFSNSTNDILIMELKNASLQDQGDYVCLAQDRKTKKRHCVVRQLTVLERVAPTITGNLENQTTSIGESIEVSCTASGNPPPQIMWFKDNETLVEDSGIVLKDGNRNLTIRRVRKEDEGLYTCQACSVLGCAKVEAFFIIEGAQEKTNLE
Test: radioactive equilibrium binding, 1 nM KDR-Fc
Procedure: To prepare ³⁵S-labeled binding proteins for analysis, mRNA was prepared as described above for RNA-protein fusion production but the linker ligation step was omitted. The mRNA was expressed using rabbit reticulocyte lysate translation kit (Ambion) in the presence of ³⁵S-labeled Met at 30° C. for 1 hour. Expressed protein was purified on M2-agarose Flag beads (Sigma) as described above. This procedure produced the encoded protein without the nucleic acid tail. In a direct binding assay, VEGF-R2-Fc fusions in concentrations ranging from 0 to 200 nM were added to a constant concentration of the purified protein (0.2 or 0.5 nM) and incubated at 30° C. for 1 hour in buffer B. The receptor-binder complexes were captured using Protein A magnetic beads for another 10 minutes at room temperature using a Kingfisher™ The beads were washed with six reaction volumes of buffer B. The protein was eluted from the beads with 100 μL of 0.1 M KOH. […] of the reaction mixture and elution were dried onto a LumaPlate-96 (Packard) and the amount of ³⁵S on the plate was measured using a TopCount NXT instrument (Packard). The amount of fibronectin-based scaffold protein bound to the target was estimated as a percent of radioactivity eluted from Protein A magnetic beads compare to radioactivity in the reaction mixture. Nonspecific binding of fibronectin-based scaffold proteins to the beads was determined by measuring binding in the absence of KDR-Fc and represented less than 1-2% of the input. Specific binding was obtained through subtraction of nonspecific binding from total binding. Data was analyzed using the GraphPad Prizm software (GraphPad Software, Inc, San Diego, Calif.), fitted using a one site, non-linear binding equation.

Row | Binding to 1 nM KDR, % [%] | Binder
1 | 20 | B1
2 | 29 | B2
3 | 16 | B3
4 | 31 | B4
5 | 27 | B5
6 | 24 | B6
7 | 19 | B7
8 | 25 | B8
9 | 17 | B9
10 | 32 | B10
11 | 34 | B11
12 | 19 | B12
13 | 42 | B13
14 | 38 | B14
15 | 15 | B15
16 | 23 | B16
17 | 32 | B17
18 | 24 | B18
19 | 30 | B19
20 | 37 | B20
21 | 27 | B21
22 | 33 | B22
23 | 41 | B23
24 | 27 | B24
25 | 23 | B25
26 | 21 | B26
27 | 25 | B27

Row | Binding to 1 nM KDR, % [%] | Binder
28 | 19 | B28
29 | 44 | B29
30 | 18 | B30
31 | 19 | B31
32 | 14 | B32
33 | 42 | B33
34 | 15 | B34
35 | 36 | B35
36 | 17 | B36
37 | 16 | B37
38 | 31 | B38
39 | 22 | B39
40 | 14 | B40
41 | 16 | B41
42 | 28 | B42
43 | 39 | B43
44 | 24 | B44
45 | 16 | B45
46 | 30 | B46
47 | 15 | B47
48 | 17 | B48
49 | 14 | B49
50 | 29 | B50
51 | 20 | B51
52 | 19 | B52
53 | 37 | B53
54 | 20 | B54

From patent publication US20140179896A1 (published 2014)
